Source: patent publication US20250361297A1, “ANTI- SIGLEC-15 BINDING MOLECULES AND METHODS OF USE” (ADAPTAM THERAPEUTICS, S.L., priority 2024, published 2025)

Legend:
[1] = target: T1, recombinant human Siglec-15 protein (Homo sapiens, UniProt Q6ZMC9); test: BIACORE surface plasmon resonance binding affinity; settings: SPR; antibody as ligand, human Siglec-15 as analyte; 1:1 Langmuir model
T1 construct: purchased Bonopusbio CW70-50 ug
T1 sequence (Q6ZMC9 20-263 limits assumed): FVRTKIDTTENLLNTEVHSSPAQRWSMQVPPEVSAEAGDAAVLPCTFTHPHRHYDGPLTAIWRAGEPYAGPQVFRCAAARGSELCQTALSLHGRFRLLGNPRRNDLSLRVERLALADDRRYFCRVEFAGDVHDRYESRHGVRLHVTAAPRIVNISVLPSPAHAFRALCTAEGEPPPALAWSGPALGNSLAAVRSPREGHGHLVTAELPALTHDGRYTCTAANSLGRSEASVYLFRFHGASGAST
Excerpt: Binding affinity determination of anti-Siglec-15 monoclonal antibodies using BIACORE surface plasmon resonance: The purified anti-Siglec-15 monoclonal antibodies (mAbs) were characterized for binding affinity and binding kinetics by Biacore T200 system (GE healthcare, Pittsburgh, PA, USA). Anti-Siglec-15 antibodies were covalently linked to a CM5 chip (carboxy methyl dextran coated chip, GE healthcare, Cat #BR-1005-30) via primary amines, using a standard amine coupling kit provided by Biacore (GE healthcare, Pittsburgh, PA, USA). Un-reacted moieties on the biosensor surface were blocked with ethanolamine. Then, serially diluted recombinant human Siglec-15-his protein (Bonopusbio, CW70-50 ug), 2-fold serial dilution in HBS-EP buffer starting at 80 nM, were respectively flown onto the chip at a flow rate of […]. The antigen-antibody association kinetics was followed for 2 minutes, and the dissociation kinetics was followed for 10 minutes. The association and dissociation curves were fit to a 1:1 Langmuir binding model using BIAcore evaluation software. The dissociation rate (kd) and association constant (ka) rate constants were obtained using Evaluation Software. The equilibrium dissociation constant (KD) was calculated from the ratio of kd over ka.

human Siglec-15 [2] = target: T2, human Siglec-15 (Homo sapiens, UniProt Q6ZMC9); test: Titration of full-length IgG1 antibodies on human Siglec-15 (ELISA / flow cytometry on MOLM-13 Siglec-15 cells); type: binding; settings: full-length human IgG1, titrated from 10 μg/ml
T2 construct: expressed in transfected cells
T2 sequence (Q6ZMC9 20-328): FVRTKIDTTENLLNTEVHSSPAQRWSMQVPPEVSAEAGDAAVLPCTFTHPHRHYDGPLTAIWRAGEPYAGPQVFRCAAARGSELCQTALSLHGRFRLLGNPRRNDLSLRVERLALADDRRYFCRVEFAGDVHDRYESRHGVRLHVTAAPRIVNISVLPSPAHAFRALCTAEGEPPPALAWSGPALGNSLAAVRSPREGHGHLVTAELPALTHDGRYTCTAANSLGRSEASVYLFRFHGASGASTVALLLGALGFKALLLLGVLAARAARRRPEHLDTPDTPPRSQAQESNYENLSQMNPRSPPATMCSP
Description: The binding efficacy of the converted full-length IgG1 anti-Siglec-15 antibodies was then evaluated using both ELISA and flow cytometry. By immobilizing the antigen and titrating the antibodies starting at a concentration of 10 μg/ml, binding kinetics were determined via ELISA, using an anti-human IgG Fab-specific secondary antibody for detection. Palivizumab served as the negative control in these assays (FIG. 8A). Complementary to the ELISA, flow cytometry assays provided insight into the binding behavior of the antibodies on the cell surface. […] From these assays, EC50 values were calculated, offering a quantitative measure of the antibodies' affinity towards Siglec-15, and leading to the selection of 7 unique hits (Table 10).
For the ELISA, antigens were immobilized on high-binding plates, and the full-length IgG1 anti-Siglec-15 antibodies were titrated beginning at a concentration of 10 μg/ml. […] Optical densities were measured to generate binding curves from which EC50 values were derived. […] Flow cytometric analysis was conducted, and fluorescence intensity was used to calculate EC50 values, providing a quantitative assessment of the antibodies' cell surface binding efficacy. […] Antibodies were titrated starting at a concentration of 10 μg/ml and detected with an anti-human Fc-specific secondary antibody to detect bound primary antibodies. […]

mouse Siglec-15 = target: T3, mouse Siglec-15 (Mus musculus, UniProt A7E1W8); test: Titration on HEK293T cells expressing mouse Siglec-15 (flow cytometry); type: binding; settings: titrated from 10 μg/ml
T3 construct: HEK293T cells were genetically engineered to express full-length mouse Siglec-15; expressed in transfected cells; host or cells: HEK293T
T3 sequence (A7E1W8 24-342): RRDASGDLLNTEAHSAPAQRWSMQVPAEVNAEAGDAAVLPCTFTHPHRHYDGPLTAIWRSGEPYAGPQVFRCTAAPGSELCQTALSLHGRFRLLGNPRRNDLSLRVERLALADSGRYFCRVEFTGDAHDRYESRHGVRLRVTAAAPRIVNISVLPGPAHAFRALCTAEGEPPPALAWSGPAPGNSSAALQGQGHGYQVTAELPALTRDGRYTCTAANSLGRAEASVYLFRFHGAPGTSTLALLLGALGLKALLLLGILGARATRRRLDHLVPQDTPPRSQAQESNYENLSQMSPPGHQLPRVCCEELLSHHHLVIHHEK
Description: Cross-species reactivity and domain-specific binding of the full-length anti-Siglec-15 antibody candidates were evaluated. The antibodies were titrated against HEK293T cells expressing mouse Siglec-15 or HEK293T cells expressing a truncated human Siglec-15 consisting solely of domain 2 (FIG. 9). […] However, the binding to mouse Siglec-15 was evident for all tested antibodies, with EC50 values calculated to rank the affinity of the antibodies.
For the ELISA, antigens were immobilized on high-binding plates, and the full-length IgG1 anti-Siglec-15 antibodies were titrated beginning at a concentration of 10 μg/ml. After washing, an anti-human IgG Fab-specific HRP-conjugated secondary antibody was applied for detection. […] Optical densities were measured to generate binding curves from which EC50 values were derived. […] Flow cytometric analysis was conducted, and fluorescence intensity was used to calculate EC50 values, providing a quantitative assessment of the antibodies' cell surface binding efficacy. […] Antibodies were titrated starting at a concentration of 10 μg/ml and detected with an anti-human Fc-specific secondary antibody to detect bound primary antibodies. The half-maximal effective concentration (EC50) was calculated for each antibody to determine its binding affinity to mouse Siglec-15. Results were analyzed and ranked based on the EC50 values.

human Siglec-15 [3] = target: T2, human Siglec-15; test: Competitive flow cytometry assay with benchmark antibodies; type: binding
Description: Epitope mapping assay by Flow cytometry: Competition with benchmark mouse IgG antibodies: 50,000 cells/well of THP-1 S15 OE were added to a round bottom 96 well plate, and centrifuged at 450×G for 5 minutes, and the supernatant was discarded. Human anti-siglec-15 IgG antibodies (starting at 198 nM, 3-fold serial dilution in staining buffer) were added to 100 μl of staining buffer and cells were resuspended with it and incubated for 40 minutes on ice. 100 μl of staining buffer were added to wells, centrifuged at 450× G for 5 minutes and the supernatants discarded. Benchmark mouse IgG antibodies were diluted at 33.3 nM and cells resuspended in 100 μl of the mix and incubated for 40 minutes on ice. Then, 100 μl of staining buffer were added to wells, centrifuged at 450×G for 5 minutes and the supernatants discarded. The secondary antibody anti-mouse IgG-Alexa647 was prepared at 1:200 dilution in 100 μl of staining buffer and added to each well, and cells were incubated for 40 minutes on ice. Cells were washed with 100 μl of staining buffer and centrifuged at 450×G for 5 minutes to discard the supernatant. Cells were resuspended in 150 μl of staining buffer and acquired in a flow cytometer.

Siglec-15 positive cells = test: Internalization assay (Zenon pHrodo iFL Green); type: cell-based; settings: kinetics over 1, 2, 4, 16, and 24 hours
Description: Internalization assay (Zhenon pHrodo): Sufficient volumes of 4× working solution of anti-Siglec-15 antibodies (10 nM) were prepared in cell culture medium for a total of 25 μL for each well of a 96-well plate. A working solution of Zenon™ pHrodo™ iFL IgG Labeling Reagent was prepared at 30 nM and 25 μL were added to each well. The mix was incubated for 5 minutes at room temperature to allow the labeling complexes to form. 5 mL of suspension cells at 2×10^6 cells/mL in cell culture medium were prepared and 50 μL of cells were added to each well of the 96-well plate containing the mix of anti-Siglec-15 antibody and the Zenon™ labeling reagent. Cells were incubated with the labeling complex for different timepoints (1-24 hours) under standard cell culture conditions. Fluorescence was analyzed by flow cytometry.

[4] = target: T4, THP-1 cells overexpressing human Siglec-15 (Homo sapiens, UniProt Q6ZMC9); test: Binding of anti-Siglec-15 ADCs to THP-1 S15+ cells (flow cytometry); settings: relative to Trastuzumab-based ADC negative control
T4 construct: Human full-length Siglec-15 and CD19 genes were synthesized and cloned into the pLV-MSCV lentiviral vector; His; expressed in transfected cells; host or cells: THP-1 (lentiviral overexpression, 'THP-1 S15 OE')
T4 sequence (Q6ZMC9 20-328): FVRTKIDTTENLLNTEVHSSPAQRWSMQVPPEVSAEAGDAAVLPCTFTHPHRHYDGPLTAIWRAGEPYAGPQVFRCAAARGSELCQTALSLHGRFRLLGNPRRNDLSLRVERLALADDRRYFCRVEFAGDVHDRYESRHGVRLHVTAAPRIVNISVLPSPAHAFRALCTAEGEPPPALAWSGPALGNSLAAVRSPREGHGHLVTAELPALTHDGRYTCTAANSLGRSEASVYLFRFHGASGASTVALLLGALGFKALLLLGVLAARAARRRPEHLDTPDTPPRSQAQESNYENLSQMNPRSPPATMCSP
Description: Binding of anti-Siglec-15 ADCs to THP-1 S15+ cells: 50,000 cells/well of THP-1 S15 OE cells were added to a round bottom 96 well plate, centrifuged at 450×G for 5 minutes and the supernatant discarded. Human anti-siglec-15 IgG ADCs were prepared (starting at 198 nM, 3-fold serial dilution in staining buffer) and the cells were resuspended in 100 μl of ADC. Cells were incubated for 40 minutes on ice and 100 μl of staining buffer were added to each well, followed by centrifugation at 450×G for 5 minutes and supernatants were discarded. The secondary antibody was prepared (anti-human IgG-PE at 1:500 dilution) and added 100 μl to each well. Cells were incubated for 40 minutes on ice and 100 μl of staining buffer were added to each well followed by centrifugation at 450× G for 5 minutes to then discard the supernatant. Cells were resuspended in 150 μl of staining buffer and acquired in a flow cytometer.

B1: S15B1-VH4 + VL2: humanized S15B1 antibody, humanized VH4 with humanized VL2 (antibody, V domains shown)
VH: QVQLVQSGAEVKKPGASVKVSCKASGYAFSSSWMNWVKQAPGQGLEWIGRIYPGHGETNYNGKFKDRATMTADKSTSTVYMELSSLRSEDTAVYFCARVDNSDPYYFDYWGQGTTVTVSS
VL: DIVLTQSPASLAVSPGQRATITCRASKSVSTSGYSYMHWYQQKPGQPPKLLIYLASNLESGVPARFSGSGSGTDFTLTINPVEAEDTATYYCQHGRELPFTFGGGTKLEIK
[1]
  ka: 1.69e+06 M⁻¹ s⁻¹
  kd: 0.000234 s⁻¹

B2: S15B1-VH1 + VL1: humanized S15B1 antibody, humanized VH1 (SEQ ID NO: 103) with humanized VL1 (antibody, V domains shown)
VH: QVQLVQSGAEVKKPGASVKVSCKASGYAFSSSWMNWVRQAPGQGLEWIGRIYPGHGETNYNGKFKDRVTMTADTSTSTVYMELSSLRSEDTAVYFCARVDNSDPYYFDYWGQGTTVTVSS
VL: DIVLTQSPASLAVSPGQRATITCRASKSVSTSGYSYMHWYQQKPGQPPKLLIYLASNLESGVPARFSGSGSGTDFTLTINPVEAEDTANYYCQHGRELPFTFGGGTKLEIK
[1]
  ka: 3.35e+06 M⁻¹ s⁻¹
  kd: 0.000455 s⁻¹

B3: ZLA-1243-E01: fully human anti-Siglec-15 IgG1, silenced Fc, phage display; VH SEQ ID NO: 34, VL SEQ ID NO: 35 (antibody, V domains shown)
VH: QVQLVQSGGGLVQPGRSLRLSCAASGFTFDDYAMHWVRQAPGKGLEWVSGISWNSGSIGYADSVKGRFTISRDNAKNSLYLQMNSLRAEDTALYYCAKGLWPSYDLDAFDIWGQGTMVTVSS
VL: QSALTQPASVSGSPGQSITLSCTGTSSDVGAYNFVSWYQQHPGTAPKLMIYEVSNRPSGVSDRFSGSKSGNTASLTISGLQAEDEADYYCSSYTSTIPPFVFGTGTKVTVL
modifications: IgG1 silenced Fc; ZLA-1243-E01 VH; ZLA-1243-E01 VL
Human Siglec-15 [2]
  EC50 (ng/mL) hS15: 174.3 ng/mL
Mouse Siglec-15
  EC50 (ng/mL) mS15: 84.88 ng/mL
Human Siglec-15 [3]; across all concentrations (FIG. 18D)
  inhibition of binding of A2A5C7E8 (benchmark 2): outperformed 5G12
Human Siglec-15 [3]; at concentrations above 10 nM (FIG. 18C)
  inhibition of binding of 5G12 (benchmark 1): outperformed A2A5C7E8
Siglec-15 positive cells
  internalization, fold increase over isotype control: approximately 6 fold

B4: ZLA-1243-E01-MMAE (conjugate)
VH: QVQLVQSGGGLVQPGRSLRLSCAASGFTFDDYAMHWVRQAPGKGLEWVSGISWNSGSIGYADSVKGRFTISRDNAKNSLYLQMNSLRAEDTALYYCAKGLWPSYDLDAFDIWGQGTMVTVSS
VL: QSALTQPASVSGSPGQSITLSCTGTSSDVGAYNFVSWYQQHPGTAPKLMIYEVSNRPSGVSDRFSGSKSGNTASLTISGLQAEDEADYYCSSYTSTIPPFVFGTGTKVTVL
[4]
  binding capacity to THP-1 cells overexpressing human Siglec-15: increased binding capacity
